Measurements from US6906179B2, “Antibody to SNIP1” (The General Hospital Corporation, priority 1999, dated 2005).
Where two headings read alike, the source gives them in different places.

What was measured:
[1] = system: HsN3 and Smad1 localization; assay: Localization of HsN3 and Smad1 in transfected COS cells, confocal microscopy; type: cell-based
Description: Since the activation of BMP type I receptors, either by BMP ligands in the presence of the type II receptor, or by the presence of a point mutation (Q233D), can induce the translocation of Smad1 from the cytoplasm to the nucleus (Hoodless et al., 1996, Wang et al., unpublished data), we examined whether the intracellular localization of the Smad1 interactor HsN3 is also regulated by the constitutively activated BMP type I receptor ALK3Q233D. The localization of endogenous HsN3 in COS cells in the presence or absence of activated Smad1 was studied by immunocytochemistry and confocal microscopy (FIG. 28). In untransfected COS cells, weak signals from endogenous HsN3 were detected in both the cytoplasm and the nucleus, with a monoclonal anti-HsN3 antibody and a FITC-conjugated anti-mouse secondary antibody (FIG. 28A). […]
To directly study how BMPs regulate the localization of HsN3, COS cells were transfected with the wild type BMP type I receptor ALK3 the BMP type II receptor and Smad1. […] In cells not treated with BMP7, the endogenous HsN3 produced a weak signal in both the cytoplasm and the nucleus that was detected with a FITC conjugated secondary antibody (FIG. 28D1), while the expressed Smad1 also produced a signal located throughout the transfected cells that was detected by Rodamine conjugated secondary antibody (FIG. 28D2). […]

[2] = system: rat sympathetic neurons; assay: OP-1 induced dendritic growth of rat sympathetic neurons; type: cell-based; conditions: sympathetic neurons
Experimental: If Smad1 and DPC4 signal through proteasome mediated proteolysis, proteasome inhibitors should block the signaling of BMPs. We thus directly tested the effects of the proteasome inhibitors on the signaling pathways of BMPs that signal via Smad1 activation. […] The EC50 for the inhibitory activity of lactacystin was ˜100 nM and maximal effects were obtained with 4-6 hour pretreatments (not shown).
To determine the time course of sensitivity to lactacystin with respect to the signaling pathway of OP-1, lactacystin was added to the media at various time points after the addition of OP-1 (FIG. 32, bottom panel B).

[3] = system: SNIP-1 protein level; assay: ALK3Q233D-induced degradation of SNIP-1 in transfected COS cells, Western blot; type: cell-based; conditions: COS cells transfected with Smad1, DPC4, antizyme and BMP type II and type I (ALK3) receptors, treated with BMP7 (not shown)
Description: The novel Smad1 interactor is a nuclear proteip (termed as Smad1 Nuclear Interactor Protein 1, SNIP-1, SEQ ID No. 3), with a carboxyterminal domain that is highly homologous to the aminoterminus of the nuclear inhibitor of protein phosphatase 1 (NIPP-1) (Wang & Lechleider, unpublished) (FIG. 31A & C). NIPP-1 (VanEynde et al., 1995) is known to be rapidly processed into smaller heat-stable intermediates, a process that may be mediated by proteasome (see Discussion in Jagiello et al., 1995). SNIP-1 is a strong interactor of Smad1, that also binds to both antizyme and HsN3 in the yeast two-hybrid assays (FIG. 311B).
Forty-eight hours after transfection, COS cells were lysed in an equal volume of lysis buffer (300 ul/plate), and the total protein concentration of each sample was measured. No major difference in protein concentration was detected among the lysates. The protein level of SNIP-1 in 100 ug of total protein lysate was determined by Western blot using anti-T7 monoclonal antibody. […] Such a decrease is dependent upon the coexpression of Smad1, DPC4 and antizyme, since replacing each of these three proteins with an unrelated protein (β galactosidase) abolishes such a decrease in ALK3Q233D transfected cells (FIG. 31D, top panel, lanes 9-14). […]

[4] = system: nigral dopamine neurons; conditions: cited from earlier work

B1: BMP7: OP-1 (BMP7), bone morphogenetic protein, TGF-β family ligand (protein, UniProt P18075 293-431, looked up)
Bone morphogenetic protein 7: STGSKQRSQNRSKTPKNQEALRMANVAENSSSDQRQACKKHELYVSFRDLGWQDWIIAPEGYAAYYCEGECAFPLNSYMNATNHAIVQTLVHFINPETVPKPCCAPTQLNAISVLYFDDSSNVILKKYRNMVVRACGCH
[1]; 30 mins after BMP7 treatment (20 ng/ml)
  HsN3 signal: only a nuclear HsN3 signal of increased intensity was detected
[1]; 60 mins after BMP7 treatment (20 ng/ml)
  endogenous HsN3 and overexpressed Smad1 localization: accumulated in the nucleus
[2]
  Smad1 localization upon OP-1 treatment: rapid nuclear translocation of Smad1
[3]
  degradation of SNIP-1: degradation of SNIP-1 has also been observed

B2: GDNF: glial cell line-derived neurotrophic factor, member of the TGF-β superfamily (protein, UniProt P39905 78-211, looked up)
Glial cell line-derived …: SPDKQMAVLPRRERNRQAAAANPENSRGKGRRGQRGKNRGCVLTAIHLNVTDLGLGYETKEELIFRYCSGSCDAAETTYDKILKNLSRNRRLVSDKVGQACCRPIAFDDDLSFLDDNLVYHILRKHSAKRCGCI
[4]; intracerebral administration for 4 weeks following lesioning
  nigral cell death and atrophy: completely prevented nigral cell death and atrophy
[4]; single 10 μg injection at 1 week post-lesion
  nigral cell death and atrophy: partial protective effect

B3: TGF-β3: TGF-β isoform (protein, UniProt P10600 301-412, looked up)
Transforming growth factor …: ALDTNYCFRNLEENCCVRPLYIDFRQDLGWKWVHEPKGYYANFCSGPCPYLRSADTTHSTVLGLYNTLNPEASASPCCVPQDLEPLTILYYVGRTPKVEQLSNMVVKSCKCS
[4]; similar dosing strategies
  nigral cell death or atrophy: no effect
